Broadly, the Km is the concentration of substrate that gives half-maximal velocity. The term kcat/Km denotes the second-order rate constant that governs catalysis at low substrate concentration.

Common to all, as to type: biochemical, B. amyloliquefaciens
Substrate in data set [1]: CSCC[C@H](NC(=O)[C@@H]1CCCN1C(=O)[C@H](C)NC(=O)[C@H](C)NC(=O)CCC(=O)O)C(=O)Nc1ccc([N+](=O)[O-])cc1
Briefly: Kinetics of p-nitroanilide substrate hydrolysis, S156. To be noted: other: Table XIV, 156 Ser / 166 Gly; value in parentheses; synthetic substrate with label as P-1 amino acid; 37.0 °C. From the text: (§1) Wild-type subtilisin was purified from B. subtilis culture supernatants expressing the B. amyloliquefaciens subtilisin gene (Wells, J.A., et al. (1983) Nucleic Acids Res. 11, 7911-7925) as previously described (Estell, D.A., et al. (1985) J. Biol. Chem. 260, 6518-6521). Details of the synthesis of tetrapeptide substrates having the form succinyl-L-AlaL-AlaL-ProL-[X]-p-nitroanilide (where X is the P1 amino acid) are described by DelMar, E.G., et al. (1979) Anal. Biochem. 99, 316-320. Kinetic parameters, Km(M) and kcat-(s-^1) were measured using a modified progress curve analysis (Estell, D.A., et al. (1985) J. Biol. Chem. 260, 6518-6521). Briefly, plots of rate versus product concentration were fit to the differential form of the rate equation using a non-linear regression algorithm. Errors in kcat and Km for all values reported are less than five percent. The various substrates in Table VIII are ranged in order of decreasing hydrophobicity. Nozaki, Y. (1971), J. Biol. Chem. 246, 2211-2217; Tanford C. (1978) Science 200, 1012).
(§2) Construction of position 156 single mutants were prepared by ligation of the three fragments (1-3) indicated at the bottom of Figure 21. Fragment 3, containing the carboxy-terminal portion of the subtilisin gene including the wild type position 166 codon, was isolated as a 610 bp Sacl-BamHI fragment. Fragment 1 contained the vector sequences, as well as the amino-terminal sequences of the subtilisin gene through codon 151. To produce fragment 1, a unique Kpnl site at codon 152 was introduced into the wild type subtilisin sequence from pS4.5. Site-directed mutagenesis in M13 employed a primer having the sequence 5'-TA-GTC-GTT-GCG-GTA-CCC-GGT-AAC-GAA-3' to produce the mutation. Enrichment for the mutant sequence was accomplished by restriction with Kpnl, purification and self ligation. The mutant sequence containing the Kpnl site was confirmed by direct plasmid sequencing to give pV152. pV152 (-1 µg) was digested with Kpnl and treated with 2 units of DNA polymerase I large fragment (Klenow fragment from Boeringer-Mannheim) plus 50 µM deoxynucleotide triphosphates at 37°C for 30 min. This created a blunt end that terminated with codon 151. The DNA was extracted with 1:1 volumes phenol and CHC13 and DNA in the aqueous phase was precipitated by addition of 0.1 volumes 5M ammonium acetate and two volumes ethanol. After centrifugation and washing the DNA pellet with 70% ethanol, the DNA was lyophilized. DNA was digested with BamHl and the 4.6kb piece (fragment 1) was purified by acrylamide gel electrophoresis followed by electroelution. […] The top strand was synthesized to contain a glutamine codon, and the complementary bottom strand coded for serine at 156. Ligation of heterophosphorylated cassettes leads to a large and favorable bias for the phosphorylated over the non-phosphorylated oligonucleotide sequence in the final segrated plasmid product. Therefore, to obtain Q156 the top strand was phosphorylated, and annealed to the non-phosphorylated bottom strand prior to ligation. Similarly, to obtain S156 the bottom strand was phosphorylated and annealed to the non-phosphorylated top strand. Mutant sequences were isolated after ligation and transformation, and were confirmed by restriction analysis and DNA sequencing as before. To express variant subtilisins, plasmids were transformed into a subtilisin-neutral protease deletion mutant of B. subtilis, BG2036, as previously described. Cultures were fermented in shake flasks for 24 h at 37 ° C in LB media containing […] chloramphenicol and subtilisin was purified from culture supernatants as described. Purity of subtilisin was greater than 95% as judged by SDS PAGE.
(§3) These mutant plasmids designated pS156 and pQ156 and mutant subtilisins designated S156 and Q156 were analyzed with the above synthetic substrates where P-1 comprised the amino acids Glu, Gln, Met and Lys. The results of this analyses are presented in Example 9. […]

Substrate in data set [2]: C[C@H](NC(=O)CCC(=O)O)C(=O)N[C@@H](C)C(=O)N1CCC[C@H]1C(=O)N[C@@H](CCCCN)C(=O)Nc1ccc([N+](=O)[O-])cc1
The data set is described as above. To be noted: other: Table XIV, 156 Ser / 166 Gly; value in parentheses; synthetic substrate with label as P-1 amino acid; 37.0 °C.
Excerpt: as §1, §2, §3

Substrate in data set [3]: C[C@H](NC(=O)CCC(=O)O)C(=O)N[C@@H](C)C(=O)N1CCC[C@H]1C(=O)N[C@@H](CCC(=O)O)C(=O)Nc1ccc([N+](=O)[O-])cc1
Described as above. To be noted: 37.0 °C.
Excerpt: as §1, §2, §3

Substrate in data set [4]: C[C@H](NC(=O)CCC(=O)O)C(=O)N[C@@H](C)C(=O)N1CCC[C@H]1C(=O)N[C@@H](CCC(N)=O)C(=O)Nc1ccc([N+](=O)[O-])cc1
The description is as above. To be noted: other: Table XIV, 156 Ser / 166 Gly; value in parentheses; synthetic substrate with label as P-1 amino acid; 37.0 °C.
Excerpt: as §1, §2, §3

Substrate in data set [5]: C[C@H](NC(=O)CCC(=O)O)C(=O)N[C@@H](C)C(=O)N1CCC[C@H]1C(=O)N[C@@H](Cc1ccccc1)C(=O)Nc1ccc([N+](=O)[O-])cc1
Described as above. Particulars: other: Table XIII, S156; synthetic substrate with label as P-1 residue; 37.0 °C.
Excerpt: as §1, §2, §3

Substrate in data set [6]: CSCC[C@H](NC(=O)[C@@H]1CCCN1C(=O)[C@H](C)NC(=O)[C@H](C)NC(=O)CCC(=O)O)C(=O)Nc1ccc([N+](=O)[O-])cc1
Briefly: Kinetics of p-nitroanilide substrate hydrolysis, R166. To be noted: other: Table XIV, 156 Glu / 166 Arg; value in parentheses; synthetic substrate with label as P-1 amino acid.
Excerpt: as §1
(§4) The construction of subtilisin mutants containing the substitution of the ionic amino acids Asp, Asn, Gln, Lys and Ang are disclosed in EPO Publication No. 0130756. The present example describes the construction of the mutant subtilisin containing Glu at position 166 (E166) and presents substrate specificity data on these mutants. Further data on position 166 and 156 single and double mutants is presented infra.
(§5) Each of these mutants was analyzed with the tetrapeptide substrates, succinyl-L-AlaL-AlaProL-X-p-nitroanilide, where X was Phe, Ala and Glu.

Substrate in data set [7]: C[C@H](NC(=O)CCC(=O)O)C(=O)N[C@@H](C)C(=O)N1CCC[C@H]1C(=O)N[C@@H](CCCCN)C(=O)Nc1ccc([N+](=O)[O-])cc1
The description is as above. Particulars: other: Table XIV, 156 Glu / 166 Arg; value in parentheses; synthetic substrate with label as P-1 amino acid.
Excerpt: as §1, §4, §5

Substrate in data set [8]: C[C@H](NC(=O)CCC(=O)O)C(=O)N[C@@H](C)C(=O)N1CCC[C@H]1C(=O)N[C@@H](CCC(=O)O)C(=O)Nc1ccc([N+](=O)[O-])cc1
The data set is described as above. Particulars: other: Table XIV, 156 Glu / 166 Arg; value in parentheses; synthetic substrate with label as P-1 amino acid.
Excerpt: as §1, §4, §5

Substrate in data set [9]: C[C@H](NC(=O)CCC(=O)O)C(=O)N[C@@H](C)C(=O)N1CCC[C@H]1C(=O)N[C@@H](CCC(N)=O)C(=O)Nc1ccc([N+](=O)[O-])cc1
Described as above. To be noted: other: Table XIV, 156 Glu / 166 Arg; value in parentheses; synthetic substrate with label as P-1 amino acid.
Excerpt: as §1, §4, §5

Substrate in data set [10]: CSCC[C@H](NC(=O)[C@@H]1CCCN1C(=O)[C@H](C)NC(=O)[C@H](C)NC(=O)CCC(=O)O)C(=O)Nc1ccc([N+](=O)[O-])cc1
Briefly: Kinetics of p-nitroanilide substrate hydrolysis, Q156. Particulars: other: Table XIV, 156 Gln / 166 Gly; value in parentheses; synthetic substrate with label as P-1 amino acid; 37.0 °C.
Excerpt: as §1, §2, §3

Substrate in data set [11]: C[C@H](NC(=O)CCC(=O)O)C(=O)N[C@@H](C)C(=O)N1CCC[C@H]1C(=O)N[C@@H](CCCCN)C(=O)Nc1ccc([N+](=O)[O-])cc1
The description is as above. To be noted: other: Table XIV, 156 Gln / 166 Gly; value in parentheses; synthetic substrate with label as P-1 amino acid; 37.0 °C.
Excerpt: as §1, §2, §3

Substrate in data set [12]: C[C@H](NC(=O)CCC(=O)O)C(=O)N[C@@H](C)C(=O)N1CCC[C@H]1C(=O)N[C@@H](CCC(=O)O)C(=O)Nc1ccc([N+](=O)[O-])cc1
Described as above. Particulars: 37.0 °C.
Excerpt: as §1, §2, §3

Substrate in data set [13]: C[C@H](NC(=O)CCC(=O)O)C(=O)N[C@@H](C)C(=O)N1CCC[C@H]1C(=O)N[C@@H](CCC(N)=O)C(=O)Nc1ccc([N+](=O)[O-])cc1
The description is as above. Particulars: other: Table XIV, 156 Gln / 166 Gly; value in parentheses; synthetic substrate with label as P-1 amino acid; 37.0 °C.
Excerpt: as §1, §2, §3

Substrate in data set [14]: C[C@H](NC(=O)CCC(=O)O)C(=O)N[C@@H](C)C(=O)N1CCC[C@H]1C(=O)N[C@@H](Cc1ccccc1)C(=O)Nc1ccc([N+](=O)[O-])cc1
Described as above. Particulars: other: Table XIII, enzyme E156; synthetic substrate with label as P-1 residue; 37.0 °C.
Excerpt: as §1, §2, §3

The mark [15] stands for this setting: other: Table XIII, S156, synthetic substrate with label as P-1 residue.
Setting [16] is: other: Table XIII, enzyme E156, synthetic substrate with label as P-1 residue.

B1: B. amyloliquefaciens subtilisin variant S156 (Glu156 to Ser) (Bacillus amyloliquefaciens; E263S) (protein)
chain: AQSVPYGVSQIKAPALHSQGYTGSNVKVAVIDSGIDSSHPDLKVAGGASMVPSETNPFQDNNSHGTHVAGTVAALNNSIGVLGVAPSASLYAVKVLGADGSGQYSWIINGIEWAIANNMDVINMSLGGPSGSAALKAAVDKAVASGVVVVAAAGNSGTSGSSSTVGYPGKYPSVIAVGAVDSSNQRASFSSVGPELDVMAPGVSIQSTLPGNKYGAYNGTSMASPHVAGAAALILSKHPNWTNTQVRSSLENTTTKLGDSFYYGKGLINVQAAAQ
notes: at various amino acid residues within the mature form of the subtilisin molecule; made in house; host or cells: Bacillus subtilis BG2036
On to B1, for which the Km was 28.2 µM in [1]; 1820 µM in [2]; 1800 µM in [3] (setting [15]); 1860 µM in [3] (other: Table XIV, 156 Ser / 166 Gly, value in parentheses, synthetic substrate with label as P-1 amino acid); 209 µM in data set [4]; 47 µM in data set [5]. Also, the kcat in data set [3] (setting [15]) is 0.40 s-^1; in [5], 34.00 s-^1. In addition, the kcat/Km in data set [5] is 730000 M⁻¹ s⁻¹.

B2: B. amyloliquefaciens subtilisin variant R166 (Gly166 to Arg) (Bacillus amyloliquefaciens; G273R) (protein)
chain: AQSVPYGVSQIKAPALHSQGYTGSNVKVAVIDSGIDSSHPDLKVAGGASMVPSETNPFQDNNSHGTHVAGTVAALNNSIGVLGVAPSASLYAVKVLGADGSGQYSWIINGIEWAIANNMDVINMSLGGPSGSAALKAAVDKAVASGVVVVAAAGNEGTSGSSSTVRYPGKYPSVIAVGAVDSSNQRASFSSVGPELDVMAPGVSIQSTLPGNKYGAYNGTSMASPHVAGAAALILSKHPNWTNTQVRSSLENTTTKLGDSFYYGKGLINVQAAAQ
notes: as for B1
Regarding B2, the Km in data set [6] amounted to 60.3 µM; in [7], 1580 µM; in data set [8], 501 µM; in data set [9], 316 µM.

B3: B. amyloliquefaciens subtilisin variant Q156 (Glu156 to Gln) (Bacillus amyloliquefaciens; E263Q) (protein)
chain: AQSVPYGVSQIKAPALHSQGYTGSNVKVAVIDSGIDSSHPDLKVAGGASMVPSETNPFQDNNSHGTHVAGTVAALNNSIGVLGVAPSASLYAVKVLGADGSGQYSWIINGIEWAIANNMDVINMSLGGPSGSAALKAAVDKAVASGVVVVAAAGNQGTSGSSSTVGYPGKYPSVIAVGAVDSSNQRASFSSVGPELDVMAPGVSIQSTLPGNKYGAYNGTSMASPHVAGAAALILSKHPNWTNTQVRSSLENTTTKLGDSFYYGKGLINVQAAAQ
notes: as for B1
In the case of B3, the Michaelis constant (Km) in data set [10] came out at 24.5 µM; in data set [11] it was 1510 µM; in data set [12] (setting [16]) it was 3300 µM; in [12] (other: Table XIV, 156 Gln / 166 Gly, value in parentheses, synthetic substrate with label as P-1 amino acid), 3310 µM; in [13], 155 µM; in data set [14] it was 45 µM. Also, the kcat in data set [12] (setting [16]) is recorded as 0.90 s-^1; in data set [14], 48.00 s-^1. Moreover, the kcat/Km worked out at 270 M⁻¹ s⁻¹ in data set [12] (setting [16]) and 1.1e+06 M⁻¹ s⁻¹ in data set [14].

The values above are taken from patent EP0251446B1, “Non-human Carbonyl hydrolase mutants, DNA sequences and vectors encoding same and hosts transformed with said vectors” (GENENCOR INTERNATIONAL, INC., priority 1986, dated 1988).
